{
  "source": "paper PMC7961048",
  "about": "(2021)",
  "binders": {"B1": {"name": "RSK1 phospho-PBM peptide RSK1_-1P (peptide)", "peptide": "{Biotin-ttds}-RRVRKLPST[pT]L"}, "B2": {"name": "full-length human 14-3-3β fused to the C terminus of MBP (natural protein)", "chain": "MTMDKSELVQKAKLAEQAERYDDMAAAMKAVTEQGHELSNEERNLLSVAYKNVVGARRSSWRVISSIEQKTERNEKKQQMGKEYREKIEAELQDICNDVLELLDKYLIPNATQPESKVFYLKMKGDYFRYLSEVASGDNKQTTVSNSQQAYQEAFEISKKEMQPTHPIRLGLALNFSVFYYEILNSPEKACSLAKTAFDEAIAELDTLNEESYKDSTLIMQLLRDNLTLWTSENQGDEGDAGEGEN"}, "B3": {"name": "full-length human 14-3-3τ fused to the C terminus of MBP (natural protein)", "chain": "MEKTELIQKAKLAEQAERYDDMATCMKAVTEQGAELSNEERNLLSVAYKNVVGGRRSAWRVISSIEQKTDTSDKKLQLIKDYREKVESELRSICTTVLELLDKYLIANATNPESKVFYLKMKGDYFRYLAEVACGDDRKQTIDNSQGAYQEAFDISKKEMQPTHPIRLGLALNFSVFYYEILNNPELACTLAKTAFDEAIAELDTLNEDSYKDSTLIMQLLRDNLTLWTSDSAGEECDAAEGAEN"}, "B4": {"name": "unfused 14-3-3τ devoid of the flexible C-terminal tail (domain or fragment)", "chain": "MEKTELIQKAKLAEQAERYDDMATCMKAVTEQGAELSNEERNLLSVAYKNVVGGRRSAWRVISSIEQKTDTSDKKLQLIKDYREKVESELRSICTTVLELLDKYLIANATNPESKVFYLKMKGDYFRYLAEVACGDDRKQTIDNSQGAYQEAFDISKKEMQPTHPIRLGLALNFSVFYYEILNNPELACTLAKTAFDEAIAELDTLNEDSYKDSTLIMQLLRDNLTLWT"}, "B5": {"name": "full-length human 14-3-3η fused to the C terminus of MBP (natural protein)", "chain": "MGDREQLLQRARLAEQAERYDDMASAMKAVTELNEPLSNEDRNLLSVAYKNVVGARRSSWRVISSIEQKTMADGNEKKLEKVKAYREKIEKELETVCNDVLSLLDKFLIKNCNDFQYESKVFYLKMKGDYYRYLAEVASGEKKNSVVEASEAAYKEAFEISKEQMQPTHPIRLGLALNFSVFYYEIQNAPEQACLLAKQAFDDAIAELDTLNEDSYKDSTLIMQLLRDNLTLWTSDQQDEEAGEGN"}, "B6": {"name": "RSK1 phospho-PBM peptide RSK1_-2P (peptide)", "peptide": "{Biotin-ttds}-RRVRKLPS[pT]TL"}, "B7": {"name": "full-length human 14-3-3ε fused to the C terminus of MBP (natural protein)", "chain": "MDDREDLVYQAKLAEQAERYDEMVESMKKVAGMDVELTVEERNLLSVAYKNVIGARRASWRIISSIEQKEENKGGEDKLKMIREYRQMVETELKLICCDILDVLDKHLIPAANTGESKVFYYKMKGDYHRYLAEFATGNDRKEAAENSLVAYKAASDIAMTELPPTHPIRLGLALNFSVFYYEILNSPDRACRLAKAAFDDAIAELDTLSEESYKDSTLIMQLLRDNLTLWTSDMQGDGEEQNKEALQDVEDENQ"}, "B8": {"name": "unfused 14-3-3ε devoid of the flexible C-terminal tail (domain or fragment)", "chain": "MDDREDLVYQAKLAEQAERYDEMVESMKKVAGMDVELTVEERNLLSVAYKNVIGARRASWRIISSIEQKEENKGGEDKLKMIREYRQMVETELKLICCDILDVLDKHLIPAANTGESKVFYYKMKGDYHRYLAEFATGNDRKEAAENSLVAYKAASDIAMTELPPTHPIRLGLALNFSVFYYEILNSPDRACRLAKAAFDDAIAELDTLSEESYKDSTLIMQLLRDNLTLWTS"}, "B9": {"name": "full-length human 14-3-3σ fused to the C terminus of MBP (natural protein)", "chain": "MERASLIQKAKLAEQAERYEDMAAFMKGAVEKGEELSCEERNLLSVAYKNVVGGQRAAWRVLSSIEQKSNEEGSEEKGPEVREYREKVETELQGVCDTVLGLLDSHLIKEAGDAESRVFYLKMKGDYYRYLAEVATGDDKKRIIDSARSAYQEAMDISKKEMPPTNPIRLGLALNFSVFHYEIANSPEEAISLAKTTFDEAMADLHTLSEDSYKDSTLIMQLLRDNLTLWTADNAGEEGGEAPQEPQS"}, "B10": {"name": "unfused 14-3-3β devoid of the flexible C-terminal tail (domain or fragment)", "chain": "MTMDKSELVQKAKLAEQAERYDDMAAAMKAVTEQGHELSNEERNLLSVAYKNVVGARRSSWRVISSIEQKTERNEKKQQMGKEYREKIEAELQDICNDVLELLDKYLIPNATQPESKVFYLKMKGDYFRYLSEVASGDNKQTTVSNSQQAYQEAFEISKKEMQPTHPIRLGLALNFSVFYYEILNSPEKACSLAKTAFDEAIAELDTLNEESYKDSTLIMQLLRDNLTLWT"}},
  "test_in_all_cases": "FP",
  "key": {"[1]": {"target": "B5"}, "[2]": {"target": "B7"}, "[3]": {"target": "B3"}, "[4]": {"target": "T1, full-length human 14-3-3γ fused to the C terminus of MBP (human, UniProt P61981 1-247)", "T1 chain": "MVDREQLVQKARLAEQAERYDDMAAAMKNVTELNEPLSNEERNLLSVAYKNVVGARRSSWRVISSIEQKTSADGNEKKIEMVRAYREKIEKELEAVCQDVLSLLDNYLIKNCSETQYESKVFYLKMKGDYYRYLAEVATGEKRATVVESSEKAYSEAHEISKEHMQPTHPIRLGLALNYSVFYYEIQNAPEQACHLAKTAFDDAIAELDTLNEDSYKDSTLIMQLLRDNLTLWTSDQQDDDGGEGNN"}, "[5]": {"target": "B9"}, "[6]": {"target": "T2, full-length human 14-3-3ζ fused to the C terminus of MBP (human, UniProt P63104 1-245)", "T2 chain": "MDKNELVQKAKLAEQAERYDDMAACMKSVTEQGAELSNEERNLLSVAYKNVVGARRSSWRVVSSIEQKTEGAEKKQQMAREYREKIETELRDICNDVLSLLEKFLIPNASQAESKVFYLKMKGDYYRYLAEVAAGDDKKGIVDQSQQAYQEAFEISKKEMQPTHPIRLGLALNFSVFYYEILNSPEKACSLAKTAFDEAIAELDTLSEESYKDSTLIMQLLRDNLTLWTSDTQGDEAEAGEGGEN"}, "[7]": {"target": "B2"}, "[8]": {"target": "B5"}, "[9]": {"target": "B7"}, "[10]": {"target": "B3"}, "[11]": {"target": "T1, full-length human 14-3-3γ fused to the …"}, "[12]": {"target": "B9"}, "[13]": {"target": "T2, full-length human 14-3-3ζ fused to the …"}, "[14]": {"target": "B2"}, "[15]": {"target": "T3, HPV35 E6 phospho-PBM peptide p35E6 (human papillomavirus type 35)"}, "[16]": {"target": "T4, HPV33 E6 phospho-PBM peptide p33E6 (human papillomavirus type 33)"}, "[17]": {"target": "T4, HPV33 E6 phospho-PBM peptide p33E6", "remark": "listed apart in the source"}, "[18]": {"target": "T3, HPV35 E6 phospho-PBM peptide p35E6", "remark": "listed apart in the source"}},
  "note": "Like-named read-outs stand apart in the source and are kept apart here. Non-standard residues stand in square brackets, D forms with d. No end group written: not given here. *: point of attachment. Biotin = O=C1N[C@H]2[C@H](CS[C@H]2CCCCC(=O)*)N1; pT = C[C@@H](OP(=O)(O)O)[C@H](N)C(=O)O; ttds = NCCCOCCOCCOCCCNC(=O)CCC(=O)*",
  "data": [
    {"binder": "B1", "values": [
      {"measurement": "Kd", "setting": "[1]", "result": 0.5, "unit": "µM"},
      {"measurement": "Kd", "setting": "[2]", "result": 1.6, "unit": "µM"},
      {"measurement": "Kd", "setting": "[3]", "result": 0.8, "unit": "µM"},
      {"measurement": "Kd", "setting": "[4]", "result": 0.3, "unit": "µM"},
      {"measurement": "Kd", "setting": "[5]", "result": 1.7, "unit": "µM"},
      {"measurement": "Kd", "setting": "[6]", "result": 1, "unit": "µM"},
      {"measurement": "Kd", "setting": "[7]", "result": 0.7, "unit": "µM"},
      {"measurement": "Kd", "setting": "[8]", "result": 0.46, "unit": "µM"},
      {"measurement": "Kd", "setting": "[9]", "result": 1.58, "unit": "µM"},
      {"measurement": "Kd", "setting": "[10]", "result": 0.78, "unit": "µM"},
      {"measurement": "Kd", "setting": "[11]", "result": 0.31, "unit": "µM"},
      {"measurement": "Kd", "setting": "[12]", "result": 1.71, "unit": "µM"},
      {"measurement": "Kd", "setting": "[13]", "result": 0.96, "unit": "µM"},
      {"measurement": "Kd", "setting": "[14]", "result": 0.74, "unit": "µM"}
    ]},
    {"binder": "B2", "values": [
      {"measurement": "Kd", "setting": "[15]", "result": "> 300", "unit": "µM"},
      {"measurement": "Kd", "setting": "[16]", "result": 4.1, "unit": "µM"},
      {"measurement": "Kd", "setting": "[17]", "result": 4.05, "unit": "µM"}
    ]},
    {"binder": "B3", "values": [
      {"measurement": "Kd", "setting": "[15]", "result": 233, "unit": "µM"},
      {"measurement": "Kd", "setting": "[16]", "result": 3.5, "unit": "µM"},
      {"measurement": "Kd", "setting": "[18]", "result": 233, "unit": "µM"},
      {"measurement": "Kd", "setting": "[17]", "result": 3.52, "unit": "µM"}
    ]},
    {"binder": "B4", "values": [
      {"measurement": "Kd", "setting": "[18]", "result": 363, "unit": "µM"},
      {"measurement": "Kd", "setting": "[17]", "result": 5.15, "unit": "µM"}
    ]},
    {"binder": "B5", "values": [
      {"measurement": "Kd", "setting": "[15]", "result": 163, "unit": "µM"},
      {"measurement": "Kd", "setting": "[16]", "result": 2, "unit": "µM"},
      {"measurement": "Kd", "setting": "[18]", "result": 163, "unit": "µM"},
      {"measurement": "Kd", "setting": "[17]", "result": 1.98, "unit": "µM"}
    ]},
    {"binder": "B6", "values": [
      {"measurement": "Kd", "setting": "[1]", "result": 0.7, "unit": "µM"},
      {"measurement": "Kd", "setting": "[2]", "result": 1.2, "unit": "µM"},
      {"measurement": "Kd", "setting": "[3]", "result": 0.5, "unit": "µM"},
      {"measurement": "Kd", "setting": "[4]", "result": 0.2, "unit": "µM"},
      {"measurement": "Kd", "setting": "[5]", "result": 3.6, "unit": "µM"},
      {"measurement": "Kd", "setting": "[6]", "result": 1.5, "unit": "µM"},
      {"measurement": "Kd", "setting": "[7]", "result": 1, "unit": "µM"},
      {"measurement": "Kd", "setting": "[8]", "result": 0.66, "unit": "µM"},
      {"measurement": "Kd", "setting": "[9]", "result": 1.22, "unit": "µM"},
      {"measurement": "Kd", "setting": "[10]", "result": 0.45, "unit": "µM"},
      {"measurement": "Kd", "setting": "[12]", "result": 3.57, "unit": "µM"},
      {"measurement": "Kd", "setting": "[13]", "result": 1.54, "unit": "µM"},
      {"measurement": "Kd", "setting": "[14]", "result": 0.96, "unit": "µM"}
    ]},
    {"binder": "B7", "values": [
      {"measurement": "Kd", "setting": "[15]", "result": "> 300", "unit": "µM"},
      {"measurement": "Kd", "setting": "[16]", "result": 10.3, "unit": "µM"}
    ]},
    {"binder": "B8", "values": [
      {"measurement": "Kd", "setting": "[18]", "result": "> 300", "unit": "µM"},
      {"measurement": "Kd", "setting": "[17]", "result": 7.94, "unit": "µM"}
    ]},
    {"binder": "B9", "values": [
      {"measurement": "Kd", "setting": "[15]", "result": "> 300", "unit": "µM"},
      {"measurement": "Kd", "setting": "[16]", "result": 6.8, "unit": "µM"},
      {"measurement": "Kd", "setting": "[17]", "result": 6.77, "unit": "µM"}
    ]},
    {"binder": "B10", "values": [
      {"measurement": "Kd", "setting": "[18]", "result": "> 400", "unit": "µM"},
      {"measurement": "Kd", "setting": "[17]", "result": 6.92, "unit": "µM"}
    ]}
  ]
}
